Assay results as given in article PMC3413111.
Where two headings read alike, the source gives them in different places.

Experiments:
Bse634I wt [1] = biological target: T1, Bse634I wt (UniProt Q8RT53 1-293); experiment: EMSA
T1 sequence: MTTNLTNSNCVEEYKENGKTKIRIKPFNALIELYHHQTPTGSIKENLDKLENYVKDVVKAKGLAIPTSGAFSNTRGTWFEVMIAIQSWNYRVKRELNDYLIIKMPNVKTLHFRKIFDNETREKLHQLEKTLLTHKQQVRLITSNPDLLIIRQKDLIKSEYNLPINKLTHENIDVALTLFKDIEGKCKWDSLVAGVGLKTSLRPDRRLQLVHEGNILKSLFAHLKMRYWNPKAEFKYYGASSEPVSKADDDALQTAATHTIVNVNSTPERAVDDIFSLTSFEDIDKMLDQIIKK

Bse634I R226A [2] = biological target: T2, Bse634I R226A (UniProt Q8RT53 1-293, R226A); experiment: crystal structure
T2 sequence: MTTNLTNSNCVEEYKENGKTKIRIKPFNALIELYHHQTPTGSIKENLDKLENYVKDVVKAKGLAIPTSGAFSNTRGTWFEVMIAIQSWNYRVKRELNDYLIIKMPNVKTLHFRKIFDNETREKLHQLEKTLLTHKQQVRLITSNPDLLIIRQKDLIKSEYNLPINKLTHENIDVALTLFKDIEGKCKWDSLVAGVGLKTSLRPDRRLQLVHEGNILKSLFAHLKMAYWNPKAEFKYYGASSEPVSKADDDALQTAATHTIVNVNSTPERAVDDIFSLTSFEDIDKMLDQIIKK

Bse634I wt [3] = biological target: T1, Bse634I wt; experiment: EMSA; remark: listed apart in the source
Bse634I R226A [4] = biological target: T2, Bse634I R226A; experiment: crystal structure; remark: listed apart in the source
Bse634I R226A [5] = biological target: T2, Bse634I R226A; experiment: crystal structure; remark: listed apart in the source

B1: IC (dsDNA)
DNA 1: CGCACGATCGCCGGCGATGCACGC
DNA 2: GCGTGCATCGCCGGCGATCGTGCG
modifications: inosine for G at position 10 of each strand (written as G)
B1: binds (Bse634I wt [1]).

B2: GC-1 (dsDNA)
DNA 1: TCGCGCCGGCGCG
DNA 2: TCGCGCCGGCGCG
B2: binds (Bse634I R226A [2]).

B3: AT (dsDNA)
DNA 1: CGCACGATCACCGGTGATGCACGC
DNA 2: GCGTGCATCACCGGTGATCGTGCG
B3: binds (Bse634I wt [3]).

B4: AT-1 (dsDNA)
DNA 1: TCGCACCGGTGCG
DNA 2: TCGCACCGGTGCG
B4: binds (Bse634I R226A [4]).

B5: GC (dsDNA)
DNA 1: CGCACGATCGCCGGCGATGCACGC
DNA 2: GCGTGCATCGCCGGCGATCGTGCG
B5: binds (Bse634I wt [3]).

B6: AU (dsDNA)
DNA 1: CGCACGATCACCGGUGATGCACGC
DNA 2: GCGTGCATCACCGGUGATCGTGCG
modifications: dU for T at position 15 of each strand
B6: binds (Bse634I wt [1]).

B7: AT-2 (dsDNA)
DNA 1: TTCGACCGGTCGA
DNA 2: TTCGACCGGTCGA
B7: binds (Bse634I R226A [5]).
